Experimental data taken from article PMC6328559, “Structure of the SLy1 SAM homodimer reveals a new interface for SAM domain self-association” (Scientific Reports, 2019).

Assays:
[1] = target: the molecule itself; assay: MST; Alexa Fluor 488 labelled protein kept constant (SAMwt 70 nM, SAMlg 60 nM), total protein varied (SAMwt 1.1-824 µM, SAMlg 0.2-250 µM); standard buffer pH 6.4, room temperature; fit to a monomer-dimer equilibrium; dimer to monomers
[2] = target: the molecule itself; assay: AUC; sedimentation equilibrium, 30 °C, standard buffer (50 mM potassium phosphate, 20 mM NaCl, 0.1 mM EDTA, pH 6.4) without NaN3; three loading concentrations (SAMwt 60, 120, 300 µM; SAMlg 31, 64, 98 µM) at several speeds; global fit to a monomer-dimer equilibrium; dimer to monomers

B1: SLy1 SAM domain construct SAMlg (SLy1 residues G249-E321 preceded by a glycine-proline tag) (domain or fragment, mouse)
chain: GPGKRPKPKTLHELLERIGLEEHTSTLLLNGYQTLEDFKELRETHLNELNIMDPQHRAKLLTAAELLLDYDTGSE
notes: glycine-proline left from the tag after PreScission cleavage; SLy1 (SASH3), murine, UniProtKB Q8K352, residues 249-321; 75 residues; In MST 60 nM of the protein carried amine-reactive Alexa Fluor 488; For DOSY the protein was 15N labelled; also called N-terminally extended SLy1 SAM domain construct; source: E. coli BL21(DE3), GST fusion, purified (Glutathione Sepharose, PreScission cleavage, …)
In the case of B1, the Kd [1] is reported as 5.4 ± 1.4 µM, the Kd [2] is reported as 2.2 µM and the “stoichiometry N” value [2] is reported as 2.
